Measurements published in patent publication US20120083423.

Biological target: autoantibodies to BRAF purified from the sera of RA patients

B1: BRAF (protein)
chain: LQKSPGPQRERKSSSSSEDRNRMKTLGRRDSSDDWEIPDGQITVGQRIGSGSFGTVYKGKWHGDVAVKMLNVTAPTPQQLQAFKNEVGVLRKTRHVNILLFMGYSTKPQLAIVTQWCEGSSLYHHLHIIETKFEMIKLIDIARQTAQGMDYLHAKSIIHRDLKSNNIFLHEDLTVKIGDFGLATVKSRWSGSHQFEQLSGSILWMAPEVIRMQDKNPYSFQSDVYAFGIVLYELMTGQLPYSNINNRDQIIFMVGRGYLSPDLSKVRSNCPKAMKRLMAECLKKKRDERPLFPQILASIELLARSLPKIHRSASEPSLNRAGFQTEDFSLYACASPKTPIQAGGYGAFPVH
phosphorylation of MEK1 by BRAF: 80% of anti-BRAF autoantibodies activate phosphorylation of MEK1 by BRAF in vitro
